Measured values taken from publication PMC10765799.

What was measured:
[1] = target: T1, Gal4 AD-mSin3A (full-length), Q60520; assay: yeast two-hybrid, quantitative liquid β-galactosidase assay; conditions: chain shown with the change; yeast strain L40; parent: est. 60000; read off a plot
T1 chain: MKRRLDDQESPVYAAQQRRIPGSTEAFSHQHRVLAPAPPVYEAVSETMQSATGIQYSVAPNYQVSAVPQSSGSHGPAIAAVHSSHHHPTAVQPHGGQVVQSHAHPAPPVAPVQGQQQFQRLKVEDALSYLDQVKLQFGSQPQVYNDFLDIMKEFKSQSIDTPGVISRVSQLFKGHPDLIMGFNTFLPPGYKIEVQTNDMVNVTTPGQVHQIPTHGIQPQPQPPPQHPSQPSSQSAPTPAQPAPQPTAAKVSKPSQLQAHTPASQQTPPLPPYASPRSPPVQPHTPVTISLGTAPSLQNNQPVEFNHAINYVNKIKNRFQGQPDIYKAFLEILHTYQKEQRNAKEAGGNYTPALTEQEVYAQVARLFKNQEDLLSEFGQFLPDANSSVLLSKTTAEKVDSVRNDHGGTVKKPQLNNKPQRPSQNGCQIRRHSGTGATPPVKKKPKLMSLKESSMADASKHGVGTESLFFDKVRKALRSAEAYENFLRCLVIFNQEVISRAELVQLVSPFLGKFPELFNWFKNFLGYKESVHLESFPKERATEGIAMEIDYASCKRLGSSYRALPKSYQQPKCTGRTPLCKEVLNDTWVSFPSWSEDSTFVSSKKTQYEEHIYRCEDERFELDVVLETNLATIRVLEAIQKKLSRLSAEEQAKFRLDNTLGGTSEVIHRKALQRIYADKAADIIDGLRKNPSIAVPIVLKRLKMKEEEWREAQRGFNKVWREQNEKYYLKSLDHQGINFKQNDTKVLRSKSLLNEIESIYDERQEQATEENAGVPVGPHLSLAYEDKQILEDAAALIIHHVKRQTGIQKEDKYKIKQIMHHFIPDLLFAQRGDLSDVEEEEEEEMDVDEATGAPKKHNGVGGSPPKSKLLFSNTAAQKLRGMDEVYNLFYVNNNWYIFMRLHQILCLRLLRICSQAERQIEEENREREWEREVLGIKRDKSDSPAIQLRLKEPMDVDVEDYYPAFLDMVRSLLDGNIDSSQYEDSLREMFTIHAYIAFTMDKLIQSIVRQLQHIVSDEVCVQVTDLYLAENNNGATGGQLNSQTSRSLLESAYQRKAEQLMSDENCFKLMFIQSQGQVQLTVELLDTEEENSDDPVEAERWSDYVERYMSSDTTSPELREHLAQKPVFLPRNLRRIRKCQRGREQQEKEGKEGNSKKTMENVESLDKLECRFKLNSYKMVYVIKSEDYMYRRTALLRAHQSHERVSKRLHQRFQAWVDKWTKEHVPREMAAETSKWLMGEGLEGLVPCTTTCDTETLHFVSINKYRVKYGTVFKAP

Gal4 AD-FAF1 WT, Q9UNN5 = target: T2, Gal4 AD-FAF1 WT, Q9UNN5; assay: as above; conditions: chain shown with the change; yeast strain L40; parent: est. 1500000; read off a plot
T2 chain: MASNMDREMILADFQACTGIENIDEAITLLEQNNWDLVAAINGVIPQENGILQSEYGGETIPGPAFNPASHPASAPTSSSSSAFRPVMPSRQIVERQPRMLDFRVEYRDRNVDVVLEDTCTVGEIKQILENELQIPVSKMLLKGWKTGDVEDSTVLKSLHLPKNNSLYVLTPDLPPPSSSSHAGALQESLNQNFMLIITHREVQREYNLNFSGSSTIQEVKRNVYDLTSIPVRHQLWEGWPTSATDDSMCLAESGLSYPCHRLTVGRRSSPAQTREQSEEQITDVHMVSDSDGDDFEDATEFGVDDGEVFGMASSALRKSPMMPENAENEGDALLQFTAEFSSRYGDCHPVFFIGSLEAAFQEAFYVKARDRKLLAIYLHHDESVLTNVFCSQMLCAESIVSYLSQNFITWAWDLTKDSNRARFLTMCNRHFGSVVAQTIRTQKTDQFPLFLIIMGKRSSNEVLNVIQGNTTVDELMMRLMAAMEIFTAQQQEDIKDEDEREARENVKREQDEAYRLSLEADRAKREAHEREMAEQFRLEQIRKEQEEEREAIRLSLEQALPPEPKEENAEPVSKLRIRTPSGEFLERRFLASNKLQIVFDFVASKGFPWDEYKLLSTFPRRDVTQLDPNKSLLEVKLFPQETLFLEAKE

B1: LexA-SAP130 C-terminal region (amino acids 760-1048) WT, Q9H0E3 K794A; K878A; K932A (protein)
chain: APPPSVTVGGSLSSVLGPPVPEIKVAEEVEPMDIMRPVSAVPPLATNTVSPSLALLANNLSMPTSDLPPGASPRKKPRKQQHVISTEEGDMMETNSTDDEKSTAKSLLVAAEKRKSPPKEYIDEEGVRYVPVRPRPPITLLRHYRNPWKAAYHHFQRYSDVRVAEEKKAMLQEIANQKGVSCRAQGWKVHLCAAQLLQLTNLEHDVYERLTNLQEGIIPKKKAATDDDLHRINELIQGNMQRCKLVMDQISEARDSMLKVLDHKDRVLKLLNKNGTVKKVSKLKRKEKV
- response [1]: 190000
- response (Gal4 AD-FAF1 WT, Q9UNN5): 43000
